Experimental findings from patent publication US20250171562A1 are described below.

Sequences and labels used below:
B1: CIgG4B3A1(G4S)1 (Fc fusion)
chain 1: GPPCPPCPAPEFLGGPSVFLFPPKPKDTLMISRTPEVTCVVVDVSQEDPEVQFNWYVDGVEVHNAKTKPREEQFNSTYRVVSVLTVLHQDWLNGKEYKCKVSNKGLPSSIEKTISKAKGQPREPQVYTLPPCQEEMTKNQVSLWCLVKGFYPSDIAVEWESNGQPENNYKTTPPVLDSDGSFFLYSRLTVDKSRWQEGNVFSCSVMHEALHNHYTQKSLSLSLGKGGGGSDVQLQESGGGLVQAGGSLRLSCAASGFIFRLAGMSWVRQAPGKGFEWVSGITMDGSTTNYADSVKGRFTISRDNSKNRLYLQMNSLKPEDTAVYYCARGAKGGYNDPRGQGTQVTVS
chain 2: GPPCPPCPAPEFLGGPSVFLFPPKPKDTLMISRTPEVTCVVVDVSQEDPEVQFNWYVDGVEVHNAKTKPREEQFNSTYRVVSVLTVLHQDWLNGKEYKCKVSNKGLPSSIEKTISKAKGQPREPQVCTLPPSQEEMTKNQVSLSCAVKGFYPSDIAVEWESNGQPENNYKTTPPVLDSDGSFFLVSRLTVDKSRWQEGNVFSCSVMHEALHNHYTQKSLSLSLGKGGGGSEVQLLESGGGLVQPGGSLRLSCAASGFTFGNYDMAWVRQAPGKRPEWVSSIDTGGDITHYADSVKGRFTISRDNAKNTLYLQMNSLRPEDTAVYWCATDEEYALGPNEFDYYGQGTLVTVSS
B2: CIgE4A1A1(GS3) (Fc fusion)
chain 1: GPPCPPCPAPEFLGGPSVFLFPPKPKDTLMISRTPEVTCVVVDVSQEDPEVQFNWYVDGVEVHNAKTKPREEQFNSTYRVVSVLTVLHQDWLNGKEYKCKVSNKGLPSSIEKTISKAKGQPREPQVYTLPPCQEEMTKNQVSLWCLVKGFYPSDIAVEWESNGQPENNYKTTPPVLDSDGSFFLYSRLTVDKSRWQEGNVFSCSVMHEALHNHYTQKSLSLSLGKGGGGSGGGGSGGGGSEVQLLESGGGLVQPGGSLRLSCAASGFTFGNYDMAWVRQAPGKRPEWVSSIDTGGDITHYADSVKGRFTISRDNAKNTLYLQMNSLRPEDTAVYWCATDEEYALGPNEFDYYGQGTLVTVSS
chain 2: B2 chain 1 with Y127C, C132S, W144S, L146A, Y185V
B3: CIgG4B3A1(G4S)3 (Fc fusion)
chain 1: GPPCPPCPAPEFLGGPSVFLFPPKPKDTLMISRTPEVTCVVVDVSQEDPEVQFNWYVDGVEVHNAKTKPREEQFNSTYRVVSVLTVLHQDWLNGKEYKCKVSNKGLPSSIEKTISKAKGQPREPQVYTLPPCQEEMTKNQVSLWCLVKGFYPSDIAVEWESNGQPENNYKTTPPVLDSDGSFFLYSRLTVDKSRWQEGNVFSCSVMHEALHNHYTQKSLSLSLGKGGGGSGGGGSGGGGSDVQLQESGGGLVQAGGSLRLSCAASGFIFRLAGMSWVRQAPGKGFEWVSGITMDGSTTNYADSVKGRFTISRDNSKNRLYLQMNSLKPEDTAVYYCARGAKGGYNDPRGQGTQVTVS
chain 2: B2 chain 1 with Y127C, C132S, W144S, L146A, Y185V
B4: CIgG4B3A1(G4S)2 (Fc fusion)
chain 1: GPPCPPCPAPEFLGGPSVFLFPPKPKDTLMISRTPEVTCVVVDVSQEDPEVQFNWYVDGVEVHNAKTKPREEQFNSTYRVVSVLTVLHQDWLNGKEYKCKVSNKGLPSSIEKTISKAKGQPREPQVYTLPPCQEEMTKNQVSLWCLVKGFYPSDIAVEWESNGQPENNYKTTPPVLDSDGSFFLYSRLTVDKSRWQEGNVFSCSVMHEALHNHYTQKSLSLSLGKGGGGSGGGGSDVQLQESGGGLVQAGGSLRLSCAASGFIFRLAGMSWVRQAPGKGFEWVSGITMDGSTTNYADSVKGRFTISRDNSKNRLYLQMNSLKPEDTAVYYCARGAKGGYNDPRGQGTQVTVS
chain 2: GPPCPPCPAPEFLGGPSVFLFPPKPKDTLMISRTPEVTCVVVDVSQEDPEVQFNWYVDGVEVHNAKTKPREEQFNSTYRVVSVLTVLHQDWLNGKEYKCKVSNKGLPSSIEKTISKAKGQPREPQVCTLPPSQEEMTKNQVSLSCAVKGFYPSDIAVEWESNGQPENNYKTTPPVLDSDGSFFLVSRLTVDKSRWQEGNVFSCSVMHEALHNHYTQKSLSLSLGKGGGGSGGGGSEVQLLESGGGLVQPGGSLRLSCAASGFTFGNYDMAWVRQAPGKRPEWVSSIDTGGDITHYADSVKGRFTISRDNAKNTLYLQMNSLRPEDTAVYWCATDEEYALGPNEFDYYGQGTLVTVSS
B5: CIgG4B3A1(RS) (Fc fusion)
chain 1: GPPCPPCPAPEFLGGPSVFLFPPKPKDTLMISRTPEVTCVVVDVSQEDPEVQFNWYVDGVEVHNAKTKPREEQFNSTYRVVSVLTVLHQDWLNGKEYKCKVSNKGLPSSIEKTISKAKGQPREPQVYTLPPCQEEMTKNQVSLWCLVKGFYPSDIAVEWESNGQPENNYKTTPPVLDSDGSFFLYSRLTVDKSRWQEGNVFSCSVMHEALHNHYTQKSLSLSLGKRSDVQLQESGGGLVQAGGSLRLSCAASGFIFRLAGMSWVRQAPGKGFEWVSGITMDGSTTNYADSVKGRFTISRDNSKNRLYLQMNSLKPEDTAVYYCARGAKGGYNDPRGQGTQVTVS
chain 2: GPPCPPCPAPEFLGGPSVFLFPPKPKDTLMISRTPEVTCVVVDVSQEDPEVQFNWYVDGVEVHNAKTKPREEQFNSTYRVVSVLTVLHQDWLNGKEYKCKVSNKGLPSSIEKTISKAKGQPREPQVCTLPPSQEEMTKNQVSLSCAVKGFYPSDIAVEWESNGQPENNYKTTPPVLDSDGSFFLVSRLTVDKSRWQEGNVFSCSVMHEALHNHYTQKSLSLSLGKRSEVQLLESGGGLVQPGGSLRLSCAASGFTFGNYDMAWVRQAPGKRPEWVSSIDTGGDITHYADSVKGRFTISRDNAKNTLYLQMNSLRPEDTAVYWCATDEEYALGPNEFDYYGQGTLVTVSS
B6: NIgG4B3A1(RS) (Fc fusion)
chain 1: DVQLQESGGGLVQAGGSLRLSCAASGFIFRLAGMSWVRQAPGKGFEWVSGITMDGSTTNYADSVKGRFTISRDNSKNRLYLQMNSLKPEDTAVYYCARGAKGGYNDPRGQGTQVTVSRSGPPCPPCPAPEFLGGPSVFLFPPKPKDTLMISRTPEVTCVVVDVSQEDPEVQFNWYVDGVEVHNAKTKPREEQFNSTYRVVSVLTVLHQDWLNGKEYKCKVSNKGLPSSIEKTISKAKGQPREPQVYTLPPCQEEMTKNQVSLWCLVKGFYPSDIAVEWESNGQPENNYKTTPPVLDSDGSFFLYSRLTVDKSRWQEGNVFSCSVMHEALHNHYTQKSLSLSLGK
chain 2: EVQLLESGGGLVQPGGSLRLSCAASGFTFGNYDMAWVRQAPGKRPEWVSSIDTGGDITHYADSVKGRFTISRDNAKNTLYLQMNSLRPEDTAVYWCATDEEYALGPNEFDYYGQGTLVTVSSRSGPPCPPCPAPEFLGGPSVFLFPPKPKDTLMISRTPEVTCVVVDVSQEDPEVQFNWYVDGVEVHNAKTKPREEQFNSTYRVVSVLTVLHQDWLNGKEYKCKVSNKGLPSSIEKTISKAKGQPREPQVCTLPPSQEEMTKNQVSLSCAVKGFYPSDIAVEWESNGQPENNYKTTPPVLDSDGSFFLVSRLTVDKSRWQEGNVFSCSVMHEALHNHYTQKSLSLSLGK
B7: NIgG4B3A1(G4S)1 (Fc fusion)
chain 1: DVQLQESGGGLVQAGGSLRLSCAASGFIFRLAGMSWVRQAPGKGFEWVSGITMDGSTTNYADSVKGRFTISRDNSKNRLYLQMNSLKPEDTAVYYCARGAKGGYNDPRGQGTQVTVSGGGGSGPPCPPCPAPEFLGGPSVFLFPPKPKDTLMISRTPEVTCVVVDVSQEDPEVQFNWYVDGVEVHNAKTKPREEQFNSTYRVVSVLTVLHQDWLNGKEYKCKVSNKGLPSSIEKTISKAKGQPREPQVYTLPPCQEEMTKNQVSLWCLVKGFYPSDIAVEWESNGQPENNYKTTPPVLDSDGSFFLYSRLTVDKSRWQEGNVFSCSVMHEALHNHYTQKSLSLSLGK
chain 2: EVQLLESGGGLVQPGGSLRLSCAASGFTFGNYDMAWVRQAPGKRPEWVSSIDTGGDITHYADSVKGRFTISRDNAKNTLYLQMNSLRPEDTAVYWCATDEEYALGPNEFDYYGQGTLVTVSSGGGGSGPPCPPCPAPEFLGGPSVFLFPPKPKDTLMISRTPEVTCVVVDVSQEDPEVQFNWYVDGVEVHNAKTKPREEQFNSTYRVVSVLTVLHQDWLNGKEYKCKVSNKGLPSSIEKTISKAKGQPREPQVCTLPPSQEEMTKNQVSLSCAVKGFYPSDIAVEWESNGQPENNYKTTPPVLDSDGSFFLVSRLTVDKSRWQEGNVFSCSVMHEALHNHYTQKSLSLSLGK
B8: NIgG4B3A1(G4S)2 (Fc fusion)
chain 1: DVQLQESGGGLVQAGGSLRLSCAASGFIFRLAGMSWVRQAPGKGFEWVSGITMDGSTTNYADSVKGRFTISRDNSKNRLYLQMNSLKPEDTAVYYCARGAKGGYNDPRGQGTQVTVSGGGGSGGGGSGPPCPPCPAPEFLGGPSVFLFPPKPKDTLMISRTPEVTCVVVDVSQEDPEVQFNWYVDGVEVHNAKTKPREEQFNSTYRVVSVLTVLHQDWLNGKEYKCKVSNKGLPSSIEKTISKAKGQPREPQVYTLPPCQEEMTKNQVSLWCLVKGFYPSDIAVEWESNGQPENNYKTTPPVLDSDGSFFLYSRLTVDKSRWQEGNVFSCSVMHEALHNHYTQKSLSLSLGK
chain 2: EVQLLESGGGLVQPGGSLRLSCAASGFTFGNYDMAWVRQAPGKRPEWVSSIDTGGDITHYADSVKGRFTISRDNAKNTLYLQMNSLRPEDTAVYWCATDEEYALGPNEFDYYGQGTLVTVSSGGGGSGGGGSGPPCPPCPAPEFLGGPSVFLFPPKPKDTLMISRTPEVTCVVVDVSQEDPEVQFNWYVDGVEVHNAKTKPREEQFNSTYRVVSVLTVLHQDWLNGKEYKCKVSNKGLPSSIEKTISKAKGQPREPQVCTLPPSQEEMTKNQVSLSCAVKGFYPSDIAVEWESNGQPENNYKTTPPVLDSDGSFFLVSRLTVDKSRWQEGNVFSCSVMHEALHNHYTQKSLSLSLGK

Residue numbers refer to the chain shown, from its start. Names may count otherwise.

mixture of three Der p 2 specific recombinant human IgE clones H10, H12, P4E (human), sequence (P01854 other isoform, or with tags, fused parts or gaps): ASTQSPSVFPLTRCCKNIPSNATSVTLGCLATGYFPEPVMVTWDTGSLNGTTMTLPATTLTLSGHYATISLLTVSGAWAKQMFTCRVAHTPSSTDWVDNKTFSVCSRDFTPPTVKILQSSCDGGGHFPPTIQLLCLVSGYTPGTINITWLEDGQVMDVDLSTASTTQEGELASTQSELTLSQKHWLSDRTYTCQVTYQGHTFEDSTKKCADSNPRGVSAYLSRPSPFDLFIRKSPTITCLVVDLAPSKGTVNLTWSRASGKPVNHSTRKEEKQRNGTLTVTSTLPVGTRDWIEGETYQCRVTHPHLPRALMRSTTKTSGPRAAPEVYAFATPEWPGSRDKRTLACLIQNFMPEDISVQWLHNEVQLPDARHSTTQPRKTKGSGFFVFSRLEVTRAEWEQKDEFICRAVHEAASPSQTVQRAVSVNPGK

This experiment addresses mixture of three Der p 2 specific recombinant human IgE clones H10, H12, P4E (human) (UniProt P01854). Briefly: RBL-SX38 IgE displacement, FACS.
Regarding B1, the Max effect/effect 1 µM was 12%.

Take B2: the Max effect/effect 1 µM came to 10%.

As to B3, the Max effect/effect 1 µM turned out to be 76%.

For the molecule B4, the Max effect/effect 1 µM came to 28%.

Turning to B5, the Max effect/effect 1 µM was found to be 1%.

In the case of B6, the Max effect/effect 1 µM came out at 94%.

As for B7, the Max effect/effect 1 µM was 94%.

Consider B8, for which the Max effect/effect 1 µM was found to be 94%.
